In publication PMC9757075 (Nucleic Acids Research, 2022):
Read-outs that look alike come from different tables or passages of the source.

Tests used:
[1] = molecular target: PorX (wild type, non-phosphorylated) (Porphyromonas gingivalis W83) (UniProt B2RJJ3); experiment: SAXS
[2] = molecular target: PorX (wild type, non-phosphorylated) (Porphyromonas gingivalis W83) (UniProt B2RJJ3); experiment: SAXS; remark: listed apart in the source
PorX [3] = experiment: SEC-MALLS absolute molecular weight; conditions: reference: PorX with MgCl2 alone; sites D58
PorX [4] = experiment: small-angle X-ray scattering in solution; conditions: reference: PorX without BeF3; sites D58
[5] = molecular target: Selenomethionine variant of PorX, phosphorylated with acetyl phosphate (Porphyromonas gingivalis W83) (UniProt B2RJJ3); experiment: SEC-MALS
crystal structure = molecular target: the molecule itself; experiment: crystal structure
SEC [6] = molecular target: the molecule itself; experiment: SEC
SEC [7] = molecular target: the molecule itself; experiment: SEC; remark: listed apart in the source

PorX (wild type, non-phosphorylated) (from UniProt B2RJJ3 1-518) (natural protein)
stoichiometry N [1]: 2 | stoichiometry N [2]: 2

PorX PorX pre-incubated with AcP and MgCl2
other: MALLS molecular weight (PorX [3]): gained; reference 70.2

PorX PorX with BeF3 and MgCl2
other: radius of gyration (PorX [4]): gained; reference 29.6

Selenomethionine variant of PorX, phosphorylated with acetyl phosphate (from UniProt B2RJJ3 1-518) (natural protein)
stoichiometry N [5]: 2

B1: PorX T272A, selenomethionine variant (T272A-pGpG crystal) (natural protein, Porphyromonas gingivalis W83)
chain: MEKNMRPYTVLWADDEIDLLKPHILFLEQKGYQVTPVLSGNDAIEALQNNDFDIVFLDENMPGIGGLDALQKIKELKPYTPVVMITKSEEEHIMTQAIGGKIADYLIKPVNPNQLLLSLKKNLQQHSIISETTNTNYRQEFVQLGAQMSGKLSFEEWKELYRRIVFWEIELEQADRQMGELLEMQKQEANRLFARFVTQNYREWIAKPDTRPTMSPDLFKQKVFPLLDNGEKVFFILIDNFRQDQWESVKSMLSEFYTFEEDMYLSILPTAAQYARNAIFSGLMPLQIEKMFPDLWVDEESEEGKNLNEEPMIRTLIERYRKHYSFSYNKVYETKFGERLLGQIRSLSQNQLNVIVLNFVDMMSHARTDSKMIRELASNEAAYRSLTKSWFKHSTTYNLFRSIAEMGYKVVLTTDHGTIQVKNPVKVIGDRSTNTNLRYKIGKNLDYNPKEVFEIKDPASVGLPHNNLSDKFIFTKEDDFFAYPNNYNYYVQYYRNTFQHGGISLEEMLVPVITMQPK
modifications: selenomethionine
binding result (crystal structure): binds

B2: PorX T272A incubated with acetyl phosphate (phosphorylated) (natural protein, Porphyromonas gingivalis W83)
chain: B1 chain
modifications: phosphorylated with acetyl phosphate (attenuated against the wild type)
binding result (SEC [6]): binds

B3: PorX T272A (natural protein, Porphyromonas gingivalis W83)
chain: B1 chain
binding result (SEC [7]): binds
